In general, Kd refers to the concentration at which binding is half-saturated. A low value points to higher affinity.

This passage reports Kd results from patent publication WO2023190851A1 (dated 2023).

The assay addresses SARS-CoV-2 Spike RBD, His Tag (BA.2/Omicron) (SARS-CoV-2, Omicron BA.2 lineage, UniProt P0DTC2 319-537).

B1: natural human IgG antibody (HIG001677) (antibody, V domains shown)
VH: EVQLVESGGGLVQPGGSLRLACAASGLTVSRNYMNWVRQAPGKGLEWVSLVYPGGSTFYADSVKGRFTISRDNSKNTLYLQMNSLRADDTAVYYCAREVRGRGDYWGQGTLVTVST
VL: DIQMTQSPSSLSASVGDRVTITCQASQDINKYLNWYQQKPGKAPKLLIYDASNLEPGVPSRFSGSGSGTDFTFTISNLQPEDIATYYCQNYDNLPQTFGQGTRLEIKR
The molecule B1 registered a Kd of 8.58 nM. This lies in the single-digit nanomolar range.
